Our source for the protein stability index values is the supplement of paper PMC10567573.

± gives the standard deviation.

The data set in a line: protein stability index of a GFP-peptide fusion (GPS, HEK-293T) (PSI 1-6); higher = more stable.
[1] abbreviates: treatment: DMSO, c terminus: a fixed tail appended.
[2] abbreviates: treatment: MLN4924 1 uM, 8 h, c terminus: a fixed tail appended.
Where [3] appears, read: treatment: DMSO, c terminus: native.
The mark [4] stands for this setting: treatment: MLN4924 1 uM, 8 h, c terminus: native.
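Also: 24-mer peptide tiles fused after GFP, lentivirally expressed, FACS-sorted into six equal bins by GFP/DsRed ratio, decoded by Illumina sequencing, PSI is the read-weighted mean bin number.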

Turning to SVLDDLLYAVGGHDGSSYLNSVER [KLHL20], the protein stability index is, setting by setting: under setting [1], 2.71 ± 0.46; under setting [2], 3.03 ± 0.56.

For SVLKLHHSLQQSEPDLRHLVLVVN [SERTAD1], the protein stability index runs as follows: under setting [1], 2.46 ± 0.24; under setting [2], 2.04 ± 0.25.

For SVLSACDNLSDLVMVRWNKSLEWS [IQUB], the protein stability index by setting is: under setting [1], 2.04 ± 0.24; under setting [2], 2.33 ± 0.12.

With SVMFRKWRDSKGKDKEYAEIIRKQ [UBE2R2], the protein stability index by setting is: under setting [1], 2.98 ± 0.28; under setting [2], 2.99 ± 0.18.

Turning to SWEEGMKVFEELLLDADWSINAGS [CRY1], the protein stability index amounted to 2.84 ± 0.22 under setting [1] and 2.89 ± 0.33 under setting [2].

In the case of SWRTLAILVNLQGTVVFLLSLFIP [SLC22A15], the protein stability index reads like this: under setting [1], 3.4 ± 0.53; under setting [2], 2.89 ± 0.11.

Take SWTAVTPQQTWASPAEVVDLTLDE [C18orf25]: the protein stability index reads like this: under setting [1], 4.74 ± 0.21; under setting [2], 4.73 ± 0.2.

Take SYIGLPYADHNYGARPPPTPPASP [KMT2E]: the protein stability index stood at 4.66 ± 0.32 under setting [1] and 4.73 ± 0.24 under setting [2].

As for TAAVLGLICEGLYPASIVDEPTFK [ZBED1], the protein stability index runs as follows: under setting [1], 2.17 ± 0.26; under setting [2], 2.19 ± 0.6.

Consider TAELVVIEDAAEPKEPAPPNGSAA [PALM], for which the protein stability index by setting is: under setting [1], 5.39 ± 0.14; under setting [2], 5.47 ± 0.16.

For TAHASAQSLAGGSRRTKEEELQC [TPD52L1], the protein stability index was determined as 4.99 ± 0.1 under setting [3] and 4.88 ± 0.17 under setting [4].

In turn, TATEELEKTQDDLMKHQTNISELK [EPB41L3] had a protein stability index under setting [1] of 5.69 ± 0.23 and a protein stability index under setting [2] of 5.47 ± 0.39.

Regarding TCGGGVQFSSRDCTRPVPRNGGKY [ADAMTS4], the protein stability index worked out at 4.19 ± 0.33 under setting [1] and 3.94 ± 0.65 under setting [2].

Regarding TESEARYSSQLSQVQSLITNVESQ [KRT33B], the protein stability index under setting [1] amounted to 4.66 ± 0.31 and the protein stability index under setting [2] stood at 4.75 ± 0.071.

For the sequence TEVPFSITTDNLQCRERREHPNLV [TEKT4], the protein stability index stood at 4.17 ± 0.15 under setting [1] and 4.1 ± 0.15 under setting [2].

With TGDGWEFKLADPDEVARRWGKRKN [ETS2], the protein stability index runs as follows: under setting [1], 4.34 ± 0.33; under setting [2], 4.34 ± 0.26.

Consider TGEHREFKLDKKYQRPQDSEDMWG [FBF1], for which the protein stability index turned out to be 4.56 ± 0.23 under setting [1] and 4.55 ± 0.35 under setting [2].

In turn, TGFGQGQGYTINVPWNQVGMRDAD [HDAC6] came in with a protein stability index under setting [1] of 2.89 ± 0.34 and a protein stability index under setting [2] of 2.71 ± 0.28.

TGHGVSRGPSPVVLGSQDALPIAT [FCHO1]: the protein stability index is, setting by setting: under setting [1], 4.17 ± 0.14; under setting [2], 4.14 ± 0.045.

For the sequence TGPLQPQPKKPEDEPQETAYRTQV [PKD2L1], the protein stability index came out at 5.11 ± 0.45 under setting [1] and 5.3 ± 0.2 under setting [2].

As to TGYLSSMVGLILGPFGVNHGVELH [PCMTD2], the protein stability index by setting is: under setting [1], 3.17 ± 0.31; under setting [2], 2.78 ± 0.4.

In the case of THALAEWASRREAFAQRPSSAPDL [CDC25B], the protein stability index is, setting by setting: under setting [1], 3.91 ± 0.26; under setting [2], 4.01 ± 0.082.

Turning to TIDAVPNAIPGRTDIELEIYGMEG [ZNF207], the protein stability index came out at 3.86 ± 0.27 under setting [1] and 4 ± 0.093 under setting [2].

For the sequence TIEYLKRHNALLSKRLLALTSSDL [TMEM192], the protein stability index reads like this: under setting [1], 2.38 ± 0.42; under setting [2], 2.17 ± 0.21.

On to TKLRLERVKFRRQEANARERNRMH [NEUROD6], for which the protein stability index came out at 3.67 ± 0.14 under setting [1] and 3.92 ± 0.4 under setting [2].

TLALEYTYGRRAKGHNTPKDIAHF [DYNC2LI1]: the protein stability index is, setting by setting: under setting [1], 2.74 ± 0.071; under setting [2], 2.83 ± 0.22.

In turn, TLALILQIPTQNTQARQVMEREFN [PPFIA4] displayed a protein stability index under setting [1] of 2.32 ± 0.34 and a protein stability index under setting [2] of 2.39 ± 0.26.

In the case of TLEQEQEALVNRLWKRMDKLEAEK [CCDC6], the protein stability index runs as follows: under setting [1], 4.42 ± 0.22; under setting [2], 4.52 ± 0.17.

Sequence TLLLRLNATDPDEGTNGQLDYSFG [PCDHGC5] yielded a protein stability index under setting [1] of 2.88 ± 0.36 and a protein stability index under setting [2] of 3.11 ± 0.28.

Take TLSDWAAAVESVLHLGLPWRMLRP [PPEF2]: the protein stability index by setting is: under setting [1], 3.1 ± 0.84; under setting [2], 2.48 ± 0.37.

As to TLSFIVDGQYLGVAFRGLKGKKLY [SPSB4], the protein stability index reads like this: under setting [1], 2.16 ± 0.41; under setting [2], 2.31 ± 0.31.

For TNDRTASQGQWGRAWEVDWFSLAS [DHCR7], the protein stability index reads like this: under setting [1], 2.61 ± 0.56; under setting [2], 2.68 ± 0.33.

For the sequence TNITEVDAASVYTLPAGADFLMCY [CASP6], the protein stability index reads like this: under setting [1], 2.35 ± 0.34; under setting [2], 2.18 ± 0.25.

As to TNKMKSPETKQRKLSPLRLSVSNN [KMT2E], the protein stability index reads like this: under setting [1], 4.45 ± 0.18; under setting [2], 4.41 ± 0.083.

Regarding TPAFMFRLDASTSHQNLRVDDLSV [FSD1], the protein stability index is 2.9 ± 0.28 under setting [1] and 3.07 ± 0.31 under setting [2].

Consider TPKSGEPRVPEEAAQDRPMSPGDC [YJU2B], for which the protein stability index worked out at 5.49 ± 0.24 under setting [1] and 5.42 ± 0.25 under setting [2].

For the sequence TPVIAATPVPTITANVTSVPVPPA [BRD3], the protein stability index reads like this: under setting [1], 4.53 ± 0.23; under setting [2], 4.52 ± 0.047.

On to TSCAGNLPSRPPPLLSPLLASRNP [RSPH3], for which the protein stability index is, setting by setting: under setting [1], 3.45 ± 0.22; under setting [2], 3.61 ± 0.32.

Regarding TSLKTKFPAEQYYRFHEHWRFVLQ [TSN], the protein stability index runs as follows: under setting [1], 2.34 ± 0.19; under setting [2], 2.54 ± 0.16.

Regarding TSPYSDPVVSMDLDPQPITDEEEG [PTPRD], the protein stability index worked out at 5.63 ± 0.19 under setting [1] and 5.61 ± 0.095 under setting [2].

TVAMSTLNFCGPNVINHFYCDLPQ [OR3A1] showed a protein stability index under setting [1] of 2.39 ± 0.47 and a protein stability index under setting [2] of 2.22 ± 0.17.

Turning to TVANDVMLRTGLGVIRMWADEGSR [NETO1], the protein stability index amounted to 2.61 ± 0.11 under setting [1] and 2.77 ± 0.21 under setting [2].

Consider TVEPRLLVADLLYWKDTRTSGVVF [RTN2], for which the protein stability index reads like this: under setting [1], 2.97 ± 0.61; under setting [2], 2.98 ± 0.6.

Consider TVGDLGIVRRRSRDVPESPQHAAD [YJU2B], for which the protein stability index worked out at 5.08 ± 0.25 under setting [1] and 5.3 ± 0.17 under setting [2].

Regarding TVKLLVEEKADVLARGPLNQTALH [RIPK4], the protein stability index reads like this: under setting [1], 3.35 ± 0.58; under setting [2], 3.4 ± 0.37.

Turning to TVVTGLGPDTQDLEGQSPPQSLPS [PBXIP1], the protein stability index was 5.07 ± 0.34 under setting [1] and 5.16 ± 0.098 under setting [2].

As for VAASPAPAGERRIYRHRIPSTICF [ZNF511], the protein stability index amounted to 2.51 ± 0.18 under setting [1] and 2.48 ± 0.21 under setting [2].

Turning to VAEPLAGPACVTVILPSCVPYNK [KLHL14], the protein stability index reads like this: under setting [3], 2.32 ± 0.37; under setting [4], 2.36 ± 0.32.

In turn, VAFRGLKGKKLYPVVSAVWGHCEV [SPSB4] yielded a protein stability index under setting [1] of 1.83 ± 0.46 and a protein stability index under setting [2] of 2.71 ± 0.2.

Regarding VATWAIFVHRVGQPSIGGKLSPL [CTBP1-DT], the protein stability index by setting is: under setting [3], 3.12 ± 0.21; under setting [4], 2.92 ± 0.47.

As to VCGHTLCESCVDLLFVRGAGNCPE [MNAT1], the protein stability index was determined as 2.64 ± 0.42 under setting [1] and 2.87 ± 0.53 under setting [2].

As for VCMDLRANLKQVKKEDTEKERDLR [TNNI2], the protein stability index under setting [1] was 4.71 ± 0.18 and the protein stability index under setting [2] worked out at 4.77 ± 0.4.

As to VCTFTYLLVGAAVFDALESDHEMR [KCNK9], the protein stability index was 2.9 ± 0.7 under setting [1] and 2.85 ± 0.15 under setting [2].

For VDATLEHVQDPQNTVKVQVLYPDG [INTS4], the protein stability index by setting is: under setting [1], 4.37 ± 0.12; under setting [2], 4.49 ± 0.15.

As for VDDHTPWVKGSVPPPLDQYVKFDA [CLPTM1], the protein stability index was 3.99 ± 0.15 under setting [1] and 3.74 ± 0.24 under setting [2].

Take VDPANDTFDIDPMVVTDCIQVDPP [MCOLN1]: the protein stability index runs as follows: under setting [1], 5.09 ± 0.38; under setting [2], 5.22 ± 0.28.

For the sequence VEGRKHVDVQTELYLEEIADRIIE [RSPH3], the protein stability index is 2.55 ± 0.33 under setting [1] and 2.77 ± 0.41 under setting [2].

In the case of VELPCRISPGKNATGMEVGWYRPP [MOG], the protein stability index was 2.33 ± 0.091 under setting [1] and 2.32 ± 0.28 under setting [2].

For VFDSEKCVSIPDVVGWFVLFYKPG [GULP1], the protein stability index runs as follows: under setting [1], 2.8 ± 1; under setting [2], 2.83 ± 0.33.

Regarding VFIDFSVYNANINLFCVLRLVVEF [PKD2L1], the protein stability index is, setting by setting: under setting [1], 3.51 ± 0.61; under setting [2], 2.7 ± 0.4.

As for VGGGSGDEASAATPPSSRRVWSPP [ZBTB22], the protein stability index by setting is: under setting [1], 4.66 ± 0.2; under setting [2], 4.76 ± 0.34.

Consider VGVATADAPLHSVGYTTLVGNNHE [SPSB1], for which the protein stability index is, setting by setting: under setting [1], 4.25 ± 0.45; under setting [2], 4.16 ± 0.19.

For the sequence VILNYPSPWDQEERPAQRDCSFPG [TRAF3IP2], the protein stability index under setting [1] worked out at 2.79 ± 0.21 and the protein stability index under setting [2] amounted to 3.15 ± 0.25.

Consider VIMWDIGGRKGTAIELQGHNDRVQ [WDFY2], for which the protein stability index was found to be 2.57 ± 0.64 under setting [1] and 2.45 ± 0.17 under setting [2].

Turning to VKEWFGLGGEQAEEKAFESVIEPV [MIA2], the protein stability index is, setting by setting: under setting [1], 4.23 ± 0.23; under setting [2], 4.04 ± 0.15.

VKISDFGLAKCNGLSHSHDLSMDG [RIPK4]: the protein stability index reads like this: under setting [1], 2.95 ± 0.42; under setting [2], 3.23 ± 0.37.

Turning to VKTSVPSSKSSGDLVDLFDGTSQS [CLINT1], the protein stability index under setting [1] came to 4.71 ± 0.24 and the protein stability index under setting [2] was 4.8 ± 0.18.

VLEMFDLRMMVENIMNKEAFMNQE [RHOBTB1]: the protein stability index came to 2.47 ± 0.45 under setting [1] and 2.33 ± 0.26 under setting [2].

With VLITVEDVNDNSPELTITSLFSPV [PCDHGA10], the protein stability index under setting [1] was determined as 2.3 ± 0.49 and the protein stability index under setting [2] turned out to be 2.07 ± 0.19.

As for VLPHVPLGVIQRDLAKTGCVDLTI [AUP1], the protein stability index runs as follows: under setting [1], 2.14 ± 0.25; under setting [2], 2.37 ± 0.37.

As to VLPKPKVISCLEQGEEPWVQVSPE [ZNF75A], the protein stability index was 4.21 ± 0.23 under setting [1] and 4.07 ± 0.3 under setting [2].

VLQDRAAKGSLGTQIGFADLMGVL [FEM1A]: the protein stability index reads like this: under setting [1], 2.15 ± 0.31; under setting [2], 2.22 ± 0.35.
